The values that follow come from patent US20050064493A1 (LICENTIA, published 2005).

Series [1] addresses T1, human VEGF165 (human, UniProt P15692 27-191).
T1 construct: mature; Expressed from cDNA in 293EBNA cells (pREP7) or Cos-1 cells (pSG5)
Kind of series: coexpression in transfected cells, immunoprecipitation. The text has this:
(§1) The biochemical properties of human VEGF-B₁₆₇ were examined in transfected human embryonic kidney 293EBNA cells (Invitrogen, Inc.). cDNA inserts encoding human VEGF-B₁₆₇ and human VEGF₁₆₅ [see Keck et al., Science, Vol. 246, pages 1309-312 (1989)] were individually cloned into the pREP7 expression vector (Invitrogen, Inc.). Human embryo kidney 293EBNA cells (expressing Epstein-Barr virus nuclear antigen-1) were transfected by transient transfection with the respective expression plasmids using calcium phosphate precipitation, and the cells were incubated for 48 hours. As a control, cells also were transfected with an expression vector containing the VEGF-B₁₆₇ cDNA in reverse orientation. Monolayers of cells were incubated in methionine-free and cysteine-free medium for 30 minutes followed by labeling with 100 μCi/ml [³⁵S]methionine and [³⁵S]cysteine (Promix, Amersham Inc.) in the same medium for 2 hours. The labeling medium was replaced with normal medium without serum, and labelled proteins were chased for 6 hours. Heparin was included during the chase when indicated (100 μg/ml). Media were collected after the chase period, and cells were solubilized in 10 mM Tris pH 7.5, 50 mM NaCl, 0.5% sodium deoxycholate, 0.5% Nonidet P-40, 0.1% SDS and 0.1 U/ml aprotinin. […]

Series [2] concerns the molecule itself. Kind of series: immunoprecipitation and SDS-PAGE, transfected 293EBNA cells.
Excerpt: as §1, with “hours.” for “hours. The labeling medium was replaced with normal medium without serum, and labelled proteins were chased for 6 hours. Heparin was included during the chase when indicated (100 μg/ml). Media were collected after the chase period, and cells were solubilized in 10 mM Tris pH 7.5, 50 mM NaCl, 0.5% sodium deoxycholate, 0.5% Nonidet P-40, 0.1% SDS and 0.1 U/ml aprotinin.”
VEGF-B₁₆₇ was expressed in the cells transfected with the plasmids containing the VEGF-B₁₆₇ DNA. Aliquots of the culture supernatants from cells treated or untreated with heparin and detergent solubilized cell lysates were subjected to immunoprecipitation with the specific antipeptide antiserum to VEGF-B obtained as described in Example 8 and analyzed by SDS-PAGE under reducing conditions unless otherwise indicated. […]

Series [3] deals with the molecule itself. Kind of series: SDS-PAGE and immunoblot of Sf21 culture medium. As to the method: Sf21 cells [see Vaughn et al., In Vitro, 13:213-17 (1977)] were infected with the baculovirus stocks of Example 10 at a multiplicity of infection of 10 virus particles per cell. The infected Sf21 cells were grown in roller flasks and seeded at a density of 2×10⁶ cells per ml of serum free medium (Sf900II, Gibco-BRL) for 96 hours. Culture media and cells were then harvested. Aliquots of the cell lysates and of the media were analyzed by SDS-PAGE. Total protein patterns were visualized by staining the gels with Coomassie Brilliant Blue and the presence of expressed VEGF-B isoforms were visualized by immunoblotting using specific antipeptide antibodies to human and mouse VEGF-B as described above in Example 8. […] Both proteins were retained intracellularly in the infected cells and not released into the medium. In contrast, mouse VEGF-B-₁₈₆ was readily secreted into the medium in a dimeric form.

Series [4] deals with T1, human VEGF165. Briefly: cotransfected Cos-1 cells; immunoprecipitation of media and lysates, reducing SDS-PAGE (FIG. 23B). On the procedure:
cDNA inserts encoding mouse VEGF-B₁₈₆ and human VEGF₁₆₅ were cloned into the pSG5 expression vector [Green et al., Nucleic Acid Res., 16:369 (1988)]. Cos-1 cells were maintained in minimal essential medium (MEM) containing 10% fetal calf serum, 2 mM glutamine and appropriate antibiotics. For transfections, the cells were replated into 90 mm Petri dishes. The cells were transfected with the expression vectors, separately or in combination, using calcium phosphate precipitation and incubated for 36-48 hours. Monolayers of cells were incubated in medium free of methionine and cysteine for 30 min and then incubated in the same medium containing 100 μCi/ml of [³⁵S]-methionine and [³⁵S]-cysteine for 2 hours (Promix Amersham Inc.).
For the pulse-chase experiments, the cells were labeled for 30 minutes, washed twice with normal medium and then incubated for up to 6 hours in MEM without fetal calf serum. Media were collected after the chase period and the cells were solubilized in 10 mM Tris buffer pH 7.5 containing 50 mM NaCl, 0.5% deoxycholate, 0.5% nonidet P-40 and 0.1% SDS. Aliquots of the media and the cell lysates were subjected to immunoprecipitation using the specific antiserum to mouse VEGF-B from Example 8a and a specific antiserum to human VEGF commercially available from R&D Systems. The precipitates were analyzed by SDS-PAGE. […]

T1 sequence (P15692 other isoform, or with tags, fused parts or gaps): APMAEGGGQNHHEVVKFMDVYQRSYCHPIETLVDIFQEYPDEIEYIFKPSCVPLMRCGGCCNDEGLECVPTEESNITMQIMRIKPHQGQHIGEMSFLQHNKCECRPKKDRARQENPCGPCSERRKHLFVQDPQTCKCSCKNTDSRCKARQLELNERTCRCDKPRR

B1: human VEGF-B167 (ligand)
chain: PVSQPDAPGHQRKVVSWIDVYTRATCQPREVVVPLTVELMGTVAKQLVPSCVTVQRCGGCCPDDGLECVPTGQHQVRMQILMIRYPSSQLGEMSLEEHSQCECRPKKKDSAVKPDSPRPLCPRCTQHHQRPDPRTCRCRCRRRSFLRCQGRGLELNPDTCRCRKLRR
notes: Expressed from cDNA in 293EBNA cells (pREP7) or in Sf9/Sf21 insect cells; it forms disulfide-linked homodimers and heterodimers with VEGF165; also called hVEGF-B167; vascular endothelial growth factor B
Consider B1, for which the binding result (with human VEGF165 [1]; in series [2]) was “binds” each time.

B2: murine VEGF-B186 (ligand)
chain: PVAQFDGPSHQKKVVPWIDVYARATCQPREVVVPLSMELMGNVVKQLVPSCVTVQRCGGCCPDDGLECVPTGQHQVRMQILMIQYPSSQLGEMSLEEHSQCECRPKKKESAVKPDRVAIPHHRPQPRSVPGWDSTPGASSPADIIHPTPAPGSSARLAPSAVNALTPGPAAAAADAAASSIAKGGA
notes: Expressed in Cos-1 cells (pSG5) or Sf21 insect cells; The form secreted from Cos-1 cells carries an unidentified covalent modification (Mr 32,000 against 24,000 in cells); it forms disulfide-linked homodimers and heterodimers with VEGF165; also called mVEGF-B186; mouse VEGF-B186
Regarding B2, the binding result (in series [3]; with human VEGF165 [4]) was “binds” in each case.
